To fix the notation:
T1: native human ESRRG protein (Estrogen-receptor related receptor gamma) (human, UniProt P62508 229-458, limits assumed)
T1 construct: the screened protein is called 'native human ESRRG protein'; also called ESSRG; ERRγ
T1 sequence (looked up): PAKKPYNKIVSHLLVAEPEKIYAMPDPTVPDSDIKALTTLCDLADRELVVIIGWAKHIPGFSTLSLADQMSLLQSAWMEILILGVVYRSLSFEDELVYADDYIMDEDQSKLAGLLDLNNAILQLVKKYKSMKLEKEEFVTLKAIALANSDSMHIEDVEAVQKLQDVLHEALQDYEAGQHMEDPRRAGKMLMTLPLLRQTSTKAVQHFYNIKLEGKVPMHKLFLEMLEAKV

Where no end group is shown, it is not given here.

For the first assay, the target named is T1, native human ESRRG protein …. Kind of assay: peptide microarray, Iteration 2; bound ESRRG detected with fluorescent anti-ESRRG mAb. On the procedure:
(§1) Screening was carried out typically by hybridization of the protein (1 μg/mL) against the array for 1 h at 4° C.; detection of bound protein was carried out using a fluorescently labeled anti-ESRRG mAb. (Direct labeling of ESRRG and alternative detection strategies are equally valid).
Iterative sequence expansion and arraying of 10 highest binding ligands to ESRRG from Iteration 1 was carried out and the new peptide sequences were synthesized on an array and screened against the protein, as described above. In this step, the central 2 amino acids (core) in peptide sequences were maintained unchanged while outlying amino acids (2, 3, 6, and 7) were permuted (using Tier 1 and Tier 3 substitutions) in a ‘cipher’ or ‘combination’ lock approach.
With Ac-MYKLKQDN, the “Sample B (Probe) Signal” value is 746 fluorescence intensity units and the “log2 (Sample B/Sample A)” value is 2.02.
With Ac-YFLLQQGP, the “Sample B (Probe) Signal” value is 794 fluorescence intensity units and the “log2 (Sample B/Sample A)” value is 1.97.
Taken in the same sequence, the figures for Ac-FVNFSLGI were 900 fluorescence intensity units and 1.92.
Consider Ac-RRSYPRGR, for which the “Sample B (Probe) Signal” value was 1660 fluorescence intensity units and the “log2 (Sample B/Sample A)” value was 1.9.
In the same order, the values of Ac-DRSYPRHT are 271 fluorescence intensity units and 1.98.
In the case of Ac-HNNFSLEP, the “Sample B (Probe) Signal” value was 441 fluorescence intensity units and the “log2 (Sample B/Sample A)” value turned out to be 2.03.
In the same order, the values of Ac-WLLLKHGL are 895 fluorescence intensity units and 2.01.
For Ac-AFNMYLDE, the “Sample B (Probe) Signal” value was 440 fluorescence intensity units and the “log2 (Sample B/Sample A)” value was 1.93.
As to Ac-PGKGHFPI, the “Sample B (Probe) Signal” value was 998 fluorescence intensity units and the “log2 (Sample B/Sample A)” value is 1.94.

Another assay has the same target. Kind of assay: peptide microarray, Iteration 1; bound ESRRG detected with fluorescent anti-ESRRG mAb. On the procedure: as §1
Daughter candidate ligands and their new Tier 3 and/or Tier 1 based combinations were synthesized in situ on an addressable peptide microarray and screened against native human ESRRG protein in order to determine sequences that bind to this protein. Bound protein was detected by a fluorescently labeled anti-ESRRG mAb. […] Excess (100×) competing biological matrices (human serum, HSA/BSA or bacterial protein extract) were used as backgrounds to select for specific ligands to the protein. Other competing proteins can be added to background for specificity selection and directed evolution of ligands.
Turning to Ac-AANMLLLL, the “Sample B (Probe) Signal” value is 1190 fluorescence intensity units and the “log2 (Sample B/Sample A)” value was determined as 5.52.
Regarding Ac-AANMSLLL, the “Sample B (Probe) Signal” value is 1220 fluorescence intensity units and the “log2 (Sample B/Sample A)” value amounted to 6.16.
For Ac-AANYILLL, the “Sample B (Probe) Signal” value is 2010 fluorescence intensity units and the “log2 (Sample B/Sample A)” value is 7.19.
In the case of Ac-AANYLLLL, the “Sample B (Probe) Signal” value was 3760 fluorescence intensity units and the “log2 (Sample B/Sample A)” value is 7.4.
Taken in the same sequence, the figures for Ac-AANYVLLL were 2200 fluorescence intensity units and 7.22.
In the case of Ac-AANNYLLL, the “Sample B (Probe) Signal” value was 3440 fluorescence intensity units and the “log2 (Sample B/Sample A)” value stood at 6.78.
Taken in the same sequence, the figures for Ac-AANMYLLL were 4010 fluorescence intensity units and 5.95.
Regarding Ac-LHLKGSQT, the “Sample B (Probe) Signal” value is 622 fluorescence intensity units and the “log2 (Sample B/Sample A)” value came to 6.48.
Taken in the same sequence, the figures for Ac-NSLLQHLL were 9740 fluorescence intensity units and 12.
In the same order, the values of Ac-NSLRSHLL are 1670 fluorescence intensity units and 6.34.
Regarding Ac-NSLRQHLL, the “Sample B (Probe) Signal” value is 3240 fluorescence intensity units and the “log2 (Sample B/Sample A)” value was 6.08.
In the same order, the values of Ac-ANNSLLLH are 1320 fluorescence intensity units and 6.51.
As for Ac-ANNLQLLH, the “Sample B (Probe) Signal” value is 1540 fluorescence intensity units and the “log2 (Sample B/Sample A)” value is 5.03.
In the case of Ac-ANNLKLLH, the “Sample B (Probe) Signal” value was 1670 fluorescence intensity units and the “log2 (Sample B/Sample A)” value is 4.88.
Taken in the same sequence, the figures for Ac-ANNSQLLH were 955 fluorescence intensity units and 9.9.
Taken in the same sequence, the figures for Ac-ANNVKLLH were 1720 fluorescence intensity units and 5.04.
Taken in the same sequence, the figures for Ac-ANNVSLLH were 1820 fluorescence intensity units and 4.87.
Take Ac-ANNSKLLH: the “Sample B (Probe) Signal” value is 1010 fluorescence intensity units and the “log2 (Sample B/Sample A)” value was 5.42.
In the same order, the values of Ac-ANNLSLLH are 1220 fluorescence intensity units and 5.82.
As for Ac-ANNFLLLH, the “Sample B (Probe) Signal” value is 1620 fluorescence intensity units and the “log2 (Sample B/Sample A)” value is 5.13.
Taken in the same sequence, the figures for Ac-ANNIWLLH were 1010 fluorescence intensity units and 5.05.
Taken in the same sequence, the figures for Ac-ANNILLLH were 1090 fluorescence intensity units and 6.34.
In the same order, the values of Ac-ANNSWLLH are 1260 fluorescence intensity units and 5.97.
As to Ac-ANNSSLLH, the “Sample B (Probe) Signal” value is 1150 fluorescence intensity units and the “log2 (Sample B/Sample A)” value was found to be 7.29.
Turning to Ac-ANNLWLLH, the “Sample B (Probe) Signal” value was 1610 fluorescence intensity units and the “log2 (Sample B/Sample A)” value stood at 5.26.
As for Ac-ANNVLLLH, the “Sample B (Probe) Signal” value is 2000 fluorescence intensity units and the “log2 (Sample B/Sample A)” value was 4.92.
In the same order, the values of Ac-ANNIQLLH are 806 fluorescence intensity units and 8.57.
Taken in the same sequence, the figures for Ac-LLHLQKSQ were 745 fluorescence intensity units and 5.64.
As for Ac-NNSWSLHL, the “Sample B (Probe) Signal” value is 729 fluorescence intensity units and the “log2 (Sample B/Sample A)” value was 4.95.
Taken in the same sequence, the figures for Ac-AIRGHLMG were 935 fluorescence intensity units and 5.63.
As for Ac-AIRVHLMG, the “Sample B (Probe) Signal” value is 690 fluorescence intensity units and the “log2 (Sample B/Sample A)” value was found to be 5.87.
Taken in the same sequence, the figures for Ac-IKQNYNNS were 740 fluorescence intensity units and 4.97.
Taken in the same sequence, the figures for Ac-LHLRYSQT were 961 fluorescence intensity units and 4.86.
In the same order, the values of Ac-KSLLQQLL are 7390 fluorescence intensity units and 6.38.
As to Ac-NIKVHANN, the “Sample B (Probe) Signal” value was 863 fluorescence intensity units and the “log2 (Sample B/Sample A)” value was found to be 6.58.

The values above are taken from patent US20130053541A1, “METHODS FOR DISCOVERING MOLECULES THAT BIND TO PROTEINS” (LYNNTECH, INC., priority 2011, published 2013).
